Results published in PMC9138245.

Molecular target: HA-ezrin fused protein (human (cDNA from HEK293T cells)) (UniProt P15311)
Chain of UniProt P15311 (P15311 whole entry, the tested form may be a part): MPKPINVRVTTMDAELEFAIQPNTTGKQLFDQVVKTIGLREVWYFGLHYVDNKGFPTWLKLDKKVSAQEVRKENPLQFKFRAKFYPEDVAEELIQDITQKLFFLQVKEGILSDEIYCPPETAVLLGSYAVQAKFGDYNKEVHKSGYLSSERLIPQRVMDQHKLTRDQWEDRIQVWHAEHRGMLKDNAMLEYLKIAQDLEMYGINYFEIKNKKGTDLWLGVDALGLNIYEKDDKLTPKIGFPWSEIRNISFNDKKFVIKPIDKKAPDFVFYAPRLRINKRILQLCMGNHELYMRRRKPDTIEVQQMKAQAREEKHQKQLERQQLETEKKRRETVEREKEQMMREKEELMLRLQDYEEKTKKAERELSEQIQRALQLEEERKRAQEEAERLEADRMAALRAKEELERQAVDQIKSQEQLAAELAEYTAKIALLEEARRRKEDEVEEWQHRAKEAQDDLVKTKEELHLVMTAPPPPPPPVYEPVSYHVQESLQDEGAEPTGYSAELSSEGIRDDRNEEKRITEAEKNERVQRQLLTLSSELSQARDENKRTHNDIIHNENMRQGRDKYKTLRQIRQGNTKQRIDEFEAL

With “GFP-BifA fused protein (natural protein)” the ratio of p-ezrin/total-ezrin in dHL60 cells under BifA treatment (10 μg/mL purified BifA), phos-tag gel and immunoblot, 0 to 2 h (ratio p-ezrin/total-ezrin) was 1.
